Experimental findings from patent US20220195067A1 (LAMKAP BIO BETA, published 2022) are described below.

Numbering of substitutions follows the chain as printed.

Test [1] deals with T1, his-tagged recombinant huCEACAM3 (R&D Systems, #9868-CM) (human, UniProt P40198 35-155).
T1 construct: Bought reagent; also called rec. hCEACAM3; recombinant soluble human CEACAM3; not shown: His tag
T1 sequence (looked up): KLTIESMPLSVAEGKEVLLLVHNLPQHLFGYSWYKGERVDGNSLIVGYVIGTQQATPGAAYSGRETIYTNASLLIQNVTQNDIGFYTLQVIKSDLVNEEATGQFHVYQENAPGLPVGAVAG
Briefly: BLI (Octet), KD on CEACAM3 against KD on CEACAM5. The method, then:
(§1) The affinity of the anti-human CEACAM5 arm of the CD47×CEACAM5 bispecific antibodies of the invention for recombinant soluble human CEACAM5 was determined using the Bio-Layer Interferometry (BLI) technology. An OctetRED96 instrument and Protein A biosensors were used (Sartorius). The measurement was performed at 30° C. After hydration, pre-conditioning and a baseline step in Kinetic buffer (PBS, 0.002% Tween 20, 0.01% BSA, Kathon; Sartorius), biosensors were loaded for 5 min with the κλ body at 0.5 μg/mL in Kinetic buffer. Then, biosensors were dipped into a serial dilution of recombinant human CEACAM5 Extra Cellular Domain (ECD) soluble protein (produced in house), starting at 50 nM with a 2× dilution factor. The association and dissociation phases were monitored for 600 seconds each. Biosensors were regenerated using 10 mM glycine pH 1.7. A standard acquisition rate was applied (5.0 Hz, averaging by 20). Curves were processed with a reference well subtraction, a Y alignment on the baseline, without interstep correction. The affinity was measured applying a 1:1 global fitting model on the full association and dissociation steps. The binding affinity (KD) of the bispecific antibodies of the invention to recombinant human CD47 was determined by the same experimental procedure.
The affinity of the anti-human CEACAM5 arms of the CD47×CEACAM5 bispecific antibodies of the invention for recombinant soluble human CEACAM3 was determined using the Bio-Layer Interferometry (BLI) technology and an OctetRED96 instrument. HIS1K biosensors (Sartorius), loaded with an anti-His tag antibody, were used to capture his-tagged recombinant huCEACAM3 (R&D Systems, #9868-CM). The measurement was performed at 30° C. After hydration, pre-conditioning and a baseline step in Kinetic buffer (PBS, 0.002% Tween 20, 0.01% BSA, Kathon; Sartorius), biosensors were loaded for 5 min with the recombinant huCEACAM3 at 5 μg/mL in Kinetic buffer. […] The association and dissociation phases were monitored for 60 seconds and 120 seconds respectively. […]

Test [2] has as its target T2, recombinant human CEACAM5 Extra Cellular Domain (ECD) soluble protein (human, UniProt P06731 35-685, biotinylated in the competition ELISA of Example 4).
T2 construct: extracellular domain; also called rec. hCEACAM5; recombinant soluble human CEACAM5; not shown: C-terminal Avitag and hexa-histidine tag, or a human Fc or a mouse Fc region; which construct stood in each assay is not
T2 sequence (looked up): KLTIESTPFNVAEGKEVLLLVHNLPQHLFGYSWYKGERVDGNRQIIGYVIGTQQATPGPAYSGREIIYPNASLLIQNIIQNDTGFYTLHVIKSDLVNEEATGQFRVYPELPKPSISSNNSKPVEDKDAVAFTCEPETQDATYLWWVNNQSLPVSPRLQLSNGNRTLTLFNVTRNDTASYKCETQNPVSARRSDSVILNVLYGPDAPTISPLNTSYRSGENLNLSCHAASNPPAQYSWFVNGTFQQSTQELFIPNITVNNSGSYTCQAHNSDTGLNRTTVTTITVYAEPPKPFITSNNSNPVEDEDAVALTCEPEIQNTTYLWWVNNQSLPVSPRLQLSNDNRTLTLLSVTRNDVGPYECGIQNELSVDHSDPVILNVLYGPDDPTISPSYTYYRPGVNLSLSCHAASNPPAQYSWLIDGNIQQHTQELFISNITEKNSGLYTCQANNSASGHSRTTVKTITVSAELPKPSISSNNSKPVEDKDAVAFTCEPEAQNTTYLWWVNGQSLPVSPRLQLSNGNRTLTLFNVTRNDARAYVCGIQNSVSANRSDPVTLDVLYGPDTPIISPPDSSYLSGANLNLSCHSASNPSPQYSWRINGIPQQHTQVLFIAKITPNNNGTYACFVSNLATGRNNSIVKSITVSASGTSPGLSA
Briefly: BLI (Octet), from Table 2. The protocol: as §1
(§2) The affinity of the anti-human CEACAM5 arms of the CD47×CEACAM5 bispecific antibodies of the invention for recombinant soluble human CEACAM3 was determined using the Bio-Layer Interferometry (BLI) technology and an OctetRED96 instrument. HIS1K biosensors (Sartorius), loaded with an anti-His tag antibody, were used to capture his-tagged recombinant huCEACAM3 (R&D Systems, #9868-CM). The measurement was performed at 30° C. After hydration, pre-conditioning and a baseline step in Kinetic buffer (PBS, 0.002% Tween 20, 0.01% BSA, Kathon; Sartorius), biosensors were loaded for 5 min with the recombinant huCEACAM3 at 5 μg/mL in Kinetic buffer. Then, biosensors were dipped into a serial dilution of k bodies, starting at 667 nM with a 2× dilution factor. The association and dissociation phases were monitored for 60 seconds and 120 seconds respectively. Biosensors were regenerated using 10 mM glycine pH 1.7.

Test [3] concerns the target T1, his-tagged recombinant huCEACAM3 (R&D …). In words: BLI (Octet), from Table 2. The protocol:
as §1, §2

Test [4] addresses T3, human CEACAM5 on CEACAM5-expressing cancer cell lines (human, UniProt P06731 35-685).
T3 construct: whole, on cells; also called CEACAM5 on SK-CO-1, MKN-45, HPAF-II, SNU-C1, Ls174T, LoVo cells
T3 sequence (looked up): T2 sequence (looked up)
Briefly: flow cytometry on MKN-45 cells, K2AC100 directly labeled with a fluorochrome, in presence of 300 nM TCB2014. The method, then: (§3) A binding assay to cells expressing CEACAM5 was performed as described in Example 6. […] An antibody was regarded as non-competitive if 300 nM of the antibody shifts the binding curve of a bispecific antibody of the invention by less than a factor of 3.
(§4) In this experiment, the concentration-dependent binding of CD47×CEACAM5 bispecific antibody K2AC100 was measured in the presence of an anti-CEACAM5 mAbs, either TCB2014 or TCB 2017. This binding was measured at the cell surface of CEACAM5-expressing MKN-45 cells. K2AC100 was directly labeled with a fluorochrome to follow its binding on MKN-45 cells alone (dark line, dark circles), in presence of 300 nM of TCB2014 (dark line, dark triangles) or 30 nM of TCB2017 (dark line, black diamonds). Negative controls (Ctrl) were used (IgG1 in presence of TCB2014 or TCB2017). […] Therefore, the K2AC100 antibody is non-competitive with the TCB2014 and TCB2017 antibodies with respect to CEACAM5 binding.

Test [5] deals with T3, human CEACAM5 on CEACAM5-expressing …. In words: flow cytometry on MKN-45 cells, K2AC100 directly labeled with a fluorochrome, in presence of 30 nM TCB2017. The protocol:
as §3, §4

Test [6] has the same target. Briefly: flow cytometry on MKN-45 cells, K2AC100 directly labeled with a fluorochrome, no competitor. The method, then:
as §3, §4

B1: K2AC84 (bispecific antibody, human IgG1, kappa, lambda)
heavy: not shown
light 1: QSVLTQPPSVSAAPGQKVTISCSGSSSNIGIGLVSWYQQLPGTAPKLLIYNVNTRPSGIPDRFSGSKSGTSATLGITGLQTGDEADYYCGTWDFSYRVDFGGGTKLTVLGQPKAAPSVTLFPPSSEELQANKATLVCLISDFYPGAVTVAWKADSSPVKAGVETTTPSKQSNNKYAASSYLSLTPEQWKSHRSYSCQVTHEGSTVEKTVAPTECS
light 2: not shown
notes: Kappa-lambda body; also called CD47xCEACAM5 bispecific antibody K2AC84; AC84 (CEACAM5 arm)
B1: in test [1], the “Fold difference hCEACAM3/hCEACAM5 (ratio of KD)” value amounted to 137 fold. The “fold higher binding affinity (KD) compared to K2AC22” value in test [2] was 46 fold; in test [3] it was 28 fold.

B2: K2AC22 (bispecific antibody, human IgG1, kappa, lambda)
heavy: not shown
light 1: B1 light 1 with G30A, I31N, L33I, N51F, V52D, T54L, R97G, V98I, D99V
light 2: not shown
notes: Kappa-lambda body, human IgG1, one arm for CEACAM5 and one for CD47; comparison antibody from WO2019234576; also called state of the art bispecific CEAxCD47 antibody K2AC22; CD47xCEACAM5 bispecific antibody K2AC22
Take B2: the “Fold difference hCEACAM3/hCEACAM5 (ratio of KD)” value in test [1] came out at 83 fold.

B3: K2AC100 (bispecific antibody, human IgG1, kappa, lambda)
heavy: not shown
light 1: B1 light 1 with I31Y, V52G, T54I
light 2: not shown
notes: Kappa-lambda body; also called CD47xCEACAM5 bispecific antibody K2AC100; AC100 (CEACAM5 arm)
On to B3, for which the “EC50 (read off the curve)” value in test [4], in test [5] and in test [6] was approximately 2 µg/mL throughout. Also, the “Fold difference hCEACAM3/hCEACAM5 (ratio of KD)” value in test [1] stood at 146 fold. Moreover, the “fold higher binding affinity (lower KD) compared to K2AC22” value in test [2] was determined as 25 fold; in test [3], 14 fold.
